This note sets out measurements from publication PMC6658013 (PLoS Pathogens, 2019).

The test has as its target T1, prefusion-stabilized RSV F (DS-Cav1), subtype B (strain B9320), with C-terminal His tag and Strep-tag II … (human respiratory syncytial virus B, …, UniProt Q6V2E7, stabilised).
T1 construct: copies: 3 + 3
Briefly: SPR. The conditions noted are these: both partners purified.

B1: RSD5-WT Fab (parental RSD5) (Fab, V domains shown)
VH: QVQLVESGGGVVQPGRPLRLSCAASGFAFNNFALHWVRQAPGKGPEWLAAVSYDGTSPYYAESVRARFSISRDNSKKTFYLQLDSLRPEDTAVYYCARGLGSGSYSWIGYFYAMDVWGRGTTVTVSS
VL: QSALTQPASVSGSPGQSITISCTGTSSDVGGYVYVAWYQQHPGTAPKLIIYDVSDRPSGVSNRFSGSKSGNTASLTISGLQAEDDADYYCISYTDRNTVVFGGGTKLTVL
B1: the binding result is “binds”.
